Source: PMC11472046

Tests used:
[1] = target: H3K9 methylated (H3K9me) histones in chromatin (S. pombe (endogenous in S. pombe cells)); experiment: live-cell single-molecule tracking (NOBIAS mobility states, Bayesian Synthetic Likelihood rate inference); PAmCherry-tagged protein photoactivated and tracked in the nucleus of living S. pombe, 40-ms frames, room temperature; Chp2 from the nmt81 promoter, Epe1 from its own or the nmt1 promoter; WT cells, with clr4Δ and swi6Δ cells as comparison
[2] = target: H3K9 methylated (H3K9me) histones in chromatin (S. pombe (endogenous in S. pombe cells)); experiment: live-cell single-molecule time-lapse imaging; residence times of stationary PAmCherry-tagged molecules in living WT S. pombe; 200-ms integration time with different dark delay times; kdiss from a linear fit that separates photobleaching
[3] = target: H3K9 methylated (H3K9me) histones in chromatin (S. pombe (endogenous in S. pombe cells)); experiment: as above; remark: listed apart in the source
[4] = target: H3K9 methylated (H3K9me) histones in chromatin (S. pombe (endogenous in S. pombe cells)); experiment: live-cell single-molecule time-lapse imaging; as a4, but PAmCherry-Chp2-low in swi6Δ cells
[5] = target: H3K9 methylated (H3K9me) histones in chromatin (S. pombe (endogenous in S. pombe cells)); experiment: live-cell single-molecule tracking (NOBIAS mobility states, Bayesian Synthetic Likelihood rate inference); as a2, but PAmCherry-Chp2 expressed from the nmt41 promoter (5x higher level)
[6] = target: H3K9me3 mononucleosome; experiment: native gel or EMSA; varying concentrations of Chp2 with 50 nM mononucleosomes; 20 mM HEPES pH 7.5, 4 mM Tris, 80 mM KCl, 0.1% Igepal CA-630, 0.2 mM EDTA, 2 mM DTT, 10% glycerol; 4°C, 30 min; unbound nucleosome band quantified; apparent affinity (K1/2)

Sequence of PAmCherry-Chp2 (O42934 whole entry): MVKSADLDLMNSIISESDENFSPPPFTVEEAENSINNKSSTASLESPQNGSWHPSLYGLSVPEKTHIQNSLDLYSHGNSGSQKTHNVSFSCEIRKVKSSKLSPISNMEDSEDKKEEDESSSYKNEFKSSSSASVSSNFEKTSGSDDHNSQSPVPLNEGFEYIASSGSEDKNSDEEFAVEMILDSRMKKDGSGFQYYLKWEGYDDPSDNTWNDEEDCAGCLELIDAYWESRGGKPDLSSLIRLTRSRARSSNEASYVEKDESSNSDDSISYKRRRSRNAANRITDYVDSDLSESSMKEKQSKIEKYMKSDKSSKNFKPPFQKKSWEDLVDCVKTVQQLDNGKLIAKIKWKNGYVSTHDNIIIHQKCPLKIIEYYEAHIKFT
Sequence of PAmCherry-Swi6 (P40381 whole entry): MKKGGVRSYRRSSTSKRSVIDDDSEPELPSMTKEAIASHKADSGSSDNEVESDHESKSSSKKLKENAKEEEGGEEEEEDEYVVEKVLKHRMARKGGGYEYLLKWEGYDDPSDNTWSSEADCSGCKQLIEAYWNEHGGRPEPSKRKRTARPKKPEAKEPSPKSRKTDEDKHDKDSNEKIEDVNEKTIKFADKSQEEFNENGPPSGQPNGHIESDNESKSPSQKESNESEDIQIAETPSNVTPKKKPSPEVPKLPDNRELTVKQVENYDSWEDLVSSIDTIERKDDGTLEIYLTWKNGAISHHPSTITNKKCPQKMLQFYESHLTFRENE
Sequence of Chp2-WT (recombinant) (O42934 whole entry): as the sequence (O42934 whole entry) above

Substance | weight fraction of the low mobility (H3K9me-bound) state [1] [%] | average dwell time [2] [s] | koff [2] [s⁻¹] | other results
PAmCherry-Chp2 W199A (from UniProt O42934 1-380) (natural protein) | 10 | – | – | –
PAmCherry-Swi6 (from UniProt P40381 1-328) (natural protein) | – | 2.2 | 0.454 | average dwell time [3]: 2.22 s
PAmCherry-Chp2 (from UniProt O42934 1-380) (natural protein) | > 92 | 3.85 | 0.26 | average dwell time [4]: 3.72 s; koff [4]: 0.269 s⁻¹; weight fraction of the low mobility (H3K9me-bound) state [5]: > 90%; koff [1]: 0.479 s⁻¹
Chp2-WT (recombinant) (from UniProt O42934 1-380) (natural protein) | – | – | – | specificity for H3K9me over H3K9me0 nucleosomes [6]: 2 fold
